Patent US7118879
Where two headings read alike, the source gives them in different places.

Tests used:
[1] = target: anhydro-trypsin (agarose-immobilized) (UniProt P00760); assay: anhydrotrypsin beads, experiment 2
[2] = target: trypsin (active, immobilized on beads, or in solution) (UniProt P00760); assay: eluted from trypsin beads
[3] = target: anhydro-trypsin (agarose-immobilized) (UniProt P00760); assay: anhydrotrypsin beads, experiment 1
[4] = target: protein A (agarose beads) (UniProt P38507); assay: titer after protein A beads alone
[5] = target: trypsin (active, immobilized on beads, or in solution) (UniProt P00760); assay: trypsin beads
[6] = target: anhydro-trypsin (agarose-immobilized) (UniProt P00760); assay: titer after anhydrotrypsin beads
[7] = target: human neutrophil elastase (immobilized on Reacti-Gel agarose beads, or free) (human) (UniProt P08246); assay: acid-eluted from HNE beads
Sequence of human neutrophil elastase (immobilized on Reacti-Gel agarose beads, or free) (human) (P08246 30-247 limits assumed): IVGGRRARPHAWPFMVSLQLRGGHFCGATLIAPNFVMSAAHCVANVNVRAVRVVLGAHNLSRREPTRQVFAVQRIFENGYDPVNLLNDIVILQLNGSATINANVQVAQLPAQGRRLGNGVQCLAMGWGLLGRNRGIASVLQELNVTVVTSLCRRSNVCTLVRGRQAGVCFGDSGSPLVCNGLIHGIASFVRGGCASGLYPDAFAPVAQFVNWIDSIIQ

[8] = target: human neutrophil elastase (immobilized on Reacti-Gel agarose beads, or free) (human) (UniProt P08246); assay: HNE beads
[9] = target: anhydro-trypsin (agarose-immobilized) (UniProt P00760); assay: acid-eluted from anhydrotrypsin beads, experiment 1
[10] = target: anhydro-trypsin (agarose-immobilized) (UniProt P00760); assay: eluted from anhydrotrypsin beads
[11] = target: anhydro-trypsin (agarose-immobilized) (UniProt P00760); assay: acid-eluted from anhydrotrypsin beads, experiment 2
[12] = target: anhydro-trypsin (agarose-immobilized) (UniProt P00760); assay: anhydrotrypsin beads
[13] = target: trypsin (active, immobilized on beads, or in solution) (UniProt P00760); assay: acid-eluted from trypsin beads
[14] = target: human neutrophil elastase (immobilized on Reacti-Gel agarose beads, or free) (human) (UniProt P08246); assay: pH elution of phage from HNE beads
[15] = target: human neutrophil elastase (immobilized on Reacti-Gel agarose beads, or free) (human) (UniProt P08246); assay: HNE beads, pH 7.0 eluate
[16] = target: human neutrophil elastase (immobilized on Reacti-Gel agarose beads, or free) (human) (UniProt P08246); assay: HNE beads, pH 7.0 eluate; remark: listed apart in the source
[17] = target: human neutrophil elastase (immobilized on Reacti-Gel agarose beads, or free) (human) (UniProt P08246); assay: HNE beads, pH 3.0 eluate
[18] = target: human neutrophil elastase (immobilized on Reacti-Gel agarose beads, or free) (human) (UniProt P08246); assay: HNE beads, all pH eluates
[19] = target: human neutrophil elastase (immobilized on Reacti-Gel agarose beads, or free) (human) (UniProt P08246); assay: HNE beads, pH 4.5 eluate
[20] = target: human neutrophil elastase (immobilized on Reacti-Gel agarose beads, or free) (human) (UniProt P08246); assay: HNE beads, pH 2.0 eluate
[21] = target: human neutrophil elastase (immobilized on Reacti-Gel agarose beads, or free) (human) (UniProt P08246); assay: HNE beads, pH 4.0 eluate
[22] = target: human neutrophil elastase (immobilized on Reacti-Gel agarose beads, or free) (human) (UniProt P08246); assay: HNE beads, pH 5.5 eluate
[23] = target: human neutrophil elastase (immobilized on Reacti-Gel agarose beads, or free) (human) (UniProt P08246); assay: pH elution of clonal phage from HNE beads (FIG. 9)
[24] = target: human neutrophil elastase (immobilized on Reacti-Gel agarose beads, or free) (human) (UniProt P08246); assay: HNE beads, pH 7.0 eluate; remark: listed apart in the source
[25] = target: human neutrophil elastase (immobilized on Reacti-Gel agarose beads, or free) (human) (UniProt P08246); assay: HNE beads, pH 5.0 eluate
[26] = target: human neutrophil elastase (immobilized on Reacti-Gel agarose beads, or free) (human) (UniProt P08246); assay: HNE beads, pH 2.0 eluate; remark: listed apart in the source
[27] = target: human neutrophil elastase (immobilized on Reacti-Gel agarose beads, or free) (human) (UniProt P08246); assay: HNE beads, pH 3.5 eluate
[28] = target: human neutrophil elastase (immobilized on Reacti-Gel agarose beads, or free) (human) (UniProt P08246); assay: HNE beads, all pH eluates; remark: listed apart in the source
[29] = target: human neutrophil elastase (immobilized on Reacti-Gel agarose beads, or free) (human) (UniProt P08246); assay: HNE beads, pH 6.0 eluate
[30] = target: human neutrophil elastase (immobilized on Reacti-Gel agarose beads, or free) (human) (UniProt P08246); assay: HNE beads, final TBS-TWEEN wash
[31] = target: human neutrophil elastase (immobilized on Reacti-Gel agarose beads, or free) (human) (UniProt P08246); assay: HNE beads, pH 2.0 eluate; remark: listed apart in the source
[32] = target: human neutrophil elastase (immobilized on Reacti-Gel agarose beads, or free) (human) (UniProt P08246); assay: HNE beads, pH 3.5 eluate; remark: listed apart in the source
[33] = target: human neutrophil elastase (immobilized on Reacti-Gel agarose beads, or free) (human) (UniProt P08246); assay: HNE beads, wash
[34] = target: human neutrophil elastase (immobilized on Reacti-Gel agarose beads, or free) (human) (UniProt P08246); assay: HNE beads, pH 4.5 eluate; remark: listed apart in the source
[35] = target: human neutrophil elastase (immobilized on Reacti-Gel agarose beads, or free) (human) (UniProt P08246); assay: HNE beads, pH 6.0 eluate; remark: listed apart in the source
[36] = target: human neutrophil elastase (immobilized on Reacti-Gel agarose beads, or free) (human) (UniProt P08246); assay: HNE beads, pH 3.5 eluate; remark: listed apart in the source
[37] = target: human neutrophil elastase (immobilized on Reacti-Gel agarose beads, or free) (human) (UniProt P08246); assay: HNE beads, pH 5.0 eluate; remark: listed apart in the source
[38] = target: human neutrophil elastase (immobilized on Reacti-Gel agarose beads, or free) (human) (UniProt P08246); assay: HNE beads, pH 2.5 eluate
[39] = target: human neutrophil elastase (immobilized on Reacti-Gel agarose beads, or free) (human) (UniProt P08246); assay: HNE beads, all pH eluates; remark: listed apart in the source
[40] = target: human neutrophil elastase (immobilized on Reacti-Gel agarose beads, or free) (human) (UniProt P08246); assay: HNE beads, pH 2.5 eluate; remark: listed apart in the source
[41] = target: human neutrophil elastase (immobilized on Reacti-Gel agarose beads, or free) (human) (UniProt P08246); assay: HNE beads, pH 4.0 eluate; remark: listed apart in the source
[42] = target: human neutrophil elastase (immobilized on Reacti-Gel agarose beads, or free) (human) (UniProt P08246); assay: HNE beads, pH 3.0 eluate; remark: listed apart in the source
[43] = target: human neutrophil elastase (immobilized on Reacti-Gel agarose beads, or free) (human) (UniProt P08246); assay: HNE beads, pH 5.5 eluate; remark: listed apart in the source

Sequence of trypsin (active, immobilized on beads, or in solution) (P00760 24-246): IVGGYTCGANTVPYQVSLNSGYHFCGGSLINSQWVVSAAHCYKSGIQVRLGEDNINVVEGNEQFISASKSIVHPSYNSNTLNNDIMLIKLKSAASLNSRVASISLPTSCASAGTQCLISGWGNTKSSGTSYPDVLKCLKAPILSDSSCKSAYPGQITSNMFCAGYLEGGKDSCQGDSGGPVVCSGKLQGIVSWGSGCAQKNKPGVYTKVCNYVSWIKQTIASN

M13mp18 phage (wild type, non-display phage)
binding relative to M13mp18 [1]: 1 fold
eluted phage, % of input [2]: 0.00023%
binding relative to M13MP18 [3]: 1 fold
% of input pfu [4]: 72%
relative binding (to M13MP18) [5]: 1 fold
% of input pfu post incubation [6]: 121%
eluted phage, % of input [7]: 0.0003%
relative binding (to M13MP18) [8]: 1 fold
eluted phage, % of input [9]: 0.2%
eluted phage, % of input [10]: 0.1%
eluted phage, % of input [11]: 0.3%
relative binding (to M13MP18) [12]: 1 fold
eluted phage, % of input [13]: 0.0005%

EpiNE7 phage (designed binder)
pH of elution peak [14]: 3.5 pH
fraction of input [15]: 0.00018
total pfu in sample [15]: 620000 pfu
fraction of input [16]: 0.00029
total pfu in sample [16]: 520000 pfu
fraction of input [17]: 0.00021
total pfu in sample [17]: 380000 pfu
fraction of input, SUM of pH elution fractions [18]: 0.0043
fraction of input [19]: 0.00061
total pfu in sample [19]: 1.1e+06 pfu
fraction of input [20]: 0.001
fraction of input [21]: 0.00048
total pfu in sample [21]: 1.6e+06 pfu
fraction of input [22]: 0.00028
total pfu in sample [22]: 940000 pfu
pH of elution peak [23]: 3.5 pH
fraction of input [24]: 0.0003
fraction of input [25]: 0.00029
total pfu in sample [25]: 950000 pfu
fraction of input [26]: 0.00016
total pfu in sample [26]: 290000 pfu
fraction of input [27]: 0.003
fraction of input, SUM of pH elution fractions [28]: 0.0041
total pfu, SUM of pH elution fractions [28]: 7.6e+06 pfu
fraction of input [29]: 0.00041
total pfu in sample [29]: 1.4e+06 pfu
fraction of input [30]: 0.00012
total pfu in sample [30]: 380000 pfu
fraction of input [31]: 9.1e-05
total pfu in sample [31]: 300000 pfu
fraction of input [32]: 0.00029
total pfu in sample [32]: 950000 pfu
fraction of input [33]: 6e-05
fraction of input [34]: 0.00035
total pfu in sample [34]: 1.2e+06 pfu
fraction of input [35]: 0.00036
total pfu in sample [35]: 640000 pfu
fraction of input [36]: 0.00061
total pfu in sample [36]: 1.1e+06 pfu
fraction of input [37]: 0.00047
total pfu in sample [37]: 840000 pfu
fraction of input [38]: 0.00016
total pfu in sample [38]: 280000 pfu
fraction of input, SUM of pH elution fractions [39]: 0.003
total pfu, SUM of pH elution fractions [39]: 6.4e+06 pfu
fraction of input [40]: 4.8e-05
total pfu in sample [40]: 160000 pfu
fraction of input [41]: 0.00094
total pfu in sample [41]: 1.7e+06 pfu
fraction of input [42]: 0.0002
total pfu in sample [42]: 660000 pfu
fraction of input [43]: 0.00043
total pfu in sample [43]: 780000 pfu
